These results are taken from patent US20120251557A1 (VERENIGING VOOR CHRISTELIJK HOGER ONDERWIJS …, published 2012).

Assay [1] has as its target A-containing CD45 isoforms from PBL (detected with anti-CD45RA). Kind of assay: ELISA: MGL-Fc-coated plate captures ligands from PBL lysate, detection with anti-CD45RA; + = low binding (OD 450 nm <0.25).
Assay [2] concerns the target B-containing CD45 isoforms from PBL (detected with anti-CD45RB). Kind of assay: ELISA: MGL-Fc-coated plate captures ligands from PBL lysate, detection with anti-CD45RB; ++ = high binding (OD 450 nm >0.25). In general terms: In an ELISA, binding on a coated surface is turned into a signal by an enzyme label.
In assay [3] the target is C-containing CD45 isoforms from PBL (detected with anti-CD45RC). Kind of assay: ELISA: MGL-Fc-coated plate captures ligands from PBL lysate, detection with anti-CD45RC; ++ = high binding (OD 450 nm >0.25).
In assay [4] the target is human CD45BC isoform in transfected murine 300-19 cells (human) (UniProt P08575). Kind of assay: ELISA: isoform pulled down from transfectant lysate with panCD45 antibody, probed with MGL-Fc; ++ = high binding (OD 450 nm >0.25).
Assay [5] deals with human CD45AB isoform in transfected murine 300-19 cells (human) (UniProt P08575). Described as above.
Assay [6] has as its target human CD45B isoform in transfected murine 300-19 cells (human) (UniProt P08575). Described as above.
Assay [7] has as its target human CD45ABC isoform in transfected murine 300-19 cells (human) (UniProt P08575). The assay is described as above.
Assay [8] has as its target CD45 on human peripheral blood lymphocytes (PBL) (human) (UniProt P08575). Kind of assay: ELISA: MGL-Fc-coated plate captures ligands from PBL lysate, detection with panCD45 antibody; ++ = high binding (OD 450 nm >0.25).
Assay [9] has the same target. Kind of assay: cell-based or functional assay.
Assay [10] has as its target T1, secreted tumor-associated MUC1 from the supernatant of ZR75 tumor cells (UniProt P15941 24-1097, limits assumed).
T1 construct: Coated on ELISA plates, or loaded on beads through MUC1 antibodies; also called secreted MUC1 from tumor cell line ZR75
Kind of assay: ELISA on coated MUC1 from ZR75 supernatant. The text has this:
Example 2, FIG. 8. MGL-Fc detects secreted MUC1 from tumor cell line ZR75. FIG. 8A, MUC1 was harvested out of the supernatant of cultured ZR75 tumor cells and coated on ELISA plates. Both MGLFc and DC-SIGNFc were used to look for carbohydrate-binding epitopes expressed on tumor-associated MUC1. […] Furthermore, EGTA, which inhibits lectin binding to carbohydrates, illustrates that the recognition of MGL to MUC1 is carbohydrate mediated. FIG. 8B, in a second experiment, the tumor-associated MUC1 were coated on fluorescent beads coupled with MUC1 antibodies. Fluorescent MUC1-coupled beads were added to MGL-expressing CHO cells and untransfected CHO cells.
This experiment is depicted in FIG. 8 of Example 2. In FIG. 8A, MUC1 was harvested out of the supernatant of cultured ZR75 tumor cells and coated on ELISA plates. Both MGLFc and DC-SIGNFc were used to look for carbohydrate-binding epitopes expressed on tumor-associated MUC1. […] Furthermore, EGTA, which inhibits lectin binding to carbohydrates, illustrates that the recognition of MGL to MUC1 is mediated by the expression of carbohydrates.

CD45 on human peripheral blood lymphocytes (PBL) (human), sequence (P08575 26-1306): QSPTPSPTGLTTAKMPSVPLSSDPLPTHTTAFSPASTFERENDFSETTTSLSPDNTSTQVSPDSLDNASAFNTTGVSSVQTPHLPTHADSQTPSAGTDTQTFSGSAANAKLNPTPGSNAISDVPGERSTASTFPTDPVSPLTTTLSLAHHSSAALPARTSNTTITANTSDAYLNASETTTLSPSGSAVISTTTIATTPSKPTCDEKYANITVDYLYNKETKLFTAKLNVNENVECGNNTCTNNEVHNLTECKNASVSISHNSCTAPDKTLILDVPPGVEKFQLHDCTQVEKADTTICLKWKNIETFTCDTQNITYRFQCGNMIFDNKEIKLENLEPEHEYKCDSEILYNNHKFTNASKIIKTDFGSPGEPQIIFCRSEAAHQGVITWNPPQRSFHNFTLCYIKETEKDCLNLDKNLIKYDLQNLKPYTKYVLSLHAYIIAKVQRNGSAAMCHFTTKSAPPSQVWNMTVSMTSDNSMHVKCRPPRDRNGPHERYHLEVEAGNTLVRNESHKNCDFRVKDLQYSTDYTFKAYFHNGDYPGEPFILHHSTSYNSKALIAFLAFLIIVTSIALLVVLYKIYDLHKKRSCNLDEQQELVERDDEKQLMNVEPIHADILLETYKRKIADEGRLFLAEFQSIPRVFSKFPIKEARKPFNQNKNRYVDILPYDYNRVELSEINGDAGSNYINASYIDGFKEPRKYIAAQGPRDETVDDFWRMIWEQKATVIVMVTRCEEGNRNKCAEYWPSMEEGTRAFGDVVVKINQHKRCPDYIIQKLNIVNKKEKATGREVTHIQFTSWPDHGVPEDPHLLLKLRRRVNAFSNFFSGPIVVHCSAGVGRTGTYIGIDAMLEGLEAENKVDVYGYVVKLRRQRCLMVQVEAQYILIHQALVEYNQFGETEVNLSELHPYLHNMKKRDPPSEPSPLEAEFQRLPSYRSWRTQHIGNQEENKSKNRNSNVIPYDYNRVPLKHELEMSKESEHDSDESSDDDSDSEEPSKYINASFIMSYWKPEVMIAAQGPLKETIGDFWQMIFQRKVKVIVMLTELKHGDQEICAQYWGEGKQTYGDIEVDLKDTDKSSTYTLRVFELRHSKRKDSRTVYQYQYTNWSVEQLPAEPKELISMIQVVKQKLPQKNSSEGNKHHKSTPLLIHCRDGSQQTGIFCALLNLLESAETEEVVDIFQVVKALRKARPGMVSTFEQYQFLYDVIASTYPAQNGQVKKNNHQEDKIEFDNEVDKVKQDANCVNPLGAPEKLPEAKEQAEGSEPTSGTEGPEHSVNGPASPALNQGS
human CD45ABC isoform in transfected murine 300-19 cells (human), sequence (P08575 26-1306): as above
T1 sequence (P15941 24-1097 limits assumed): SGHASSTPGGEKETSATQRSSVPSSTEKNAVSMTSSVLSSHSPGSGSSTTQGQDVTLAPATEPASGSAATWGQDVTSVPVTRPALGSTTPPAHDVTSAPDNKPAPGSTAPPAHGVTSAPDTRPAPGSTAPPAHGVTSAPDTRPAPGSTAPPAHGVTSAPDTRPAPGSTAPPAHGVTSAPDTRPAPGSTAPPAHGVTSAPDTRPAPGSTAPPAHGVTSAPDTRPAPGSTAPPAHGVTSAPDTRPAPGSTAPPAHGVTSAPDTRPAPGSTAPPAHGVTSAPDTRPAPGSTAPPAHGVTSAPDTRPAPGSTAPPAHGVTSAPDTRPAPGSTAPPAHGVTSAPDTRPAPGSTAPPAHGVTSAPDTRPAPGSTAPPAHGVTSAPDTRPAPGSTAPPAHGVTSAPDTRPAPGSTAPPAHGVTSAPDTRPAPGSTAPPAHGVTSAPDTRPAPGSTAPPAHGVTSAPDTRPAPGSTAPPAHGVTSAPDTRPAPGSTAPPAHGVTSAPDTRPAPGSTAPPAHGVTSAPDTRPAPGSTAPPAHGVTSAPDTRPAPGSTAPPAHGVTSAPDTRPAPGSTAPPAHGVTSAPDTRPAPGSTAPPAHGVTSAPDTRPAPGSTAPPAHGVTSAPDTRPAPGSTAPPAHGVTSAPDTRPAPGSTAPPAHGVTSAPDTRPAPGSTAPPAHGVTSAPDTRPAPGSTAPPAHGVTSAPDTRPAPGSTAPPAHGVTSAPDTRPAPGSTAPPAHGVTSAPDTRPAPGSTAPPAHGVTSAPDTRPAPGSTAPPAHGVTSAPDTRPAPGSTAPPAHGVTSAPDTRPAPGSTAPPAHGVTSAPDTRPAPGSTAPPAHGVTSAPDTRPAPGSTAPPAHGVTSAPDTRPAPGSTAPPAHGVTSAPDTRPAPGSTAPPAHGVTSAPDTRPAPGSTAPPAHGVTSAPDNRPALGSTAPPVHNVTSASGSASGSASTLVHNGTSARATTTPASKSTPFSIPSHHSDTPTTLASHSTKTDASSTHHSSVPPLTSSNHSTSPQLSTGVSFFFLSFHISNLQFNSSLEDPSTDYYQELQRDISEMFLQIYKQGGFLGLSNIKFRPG

Take “MGL-Fc (extracellular part of human MGL, amino acids 61-289, fused at the C-terminus to human IgG1-Fc) (from UniProt Q8IUN9 61-289; P01857 99-330) (Fc fusion)”: the OD 450 nm in assay [1] is less than 0.25 od; in assay [2], greater than 0.25 od; in assay [3], greater than 0.25 od; in [4] it was greater than 0.25 od; in assay [5] it was greater than 0.25 od; in assay [6], greater than 0.25 od. Besides, the OD 450 nm in [7] and in [8] was greater than 0.25 od in each case.

In assay [9], “Macrophage galactose-type lectin (MGL) on cells (CHO-MGL transfectants, monocyte-derived dendritic cells, dexamethasone-treated APC) (from UniProt Q8IUN9 1-316) (receptor)” came in with a proliferation of allogeneic CD4+ T cells ([methyl-3H]thymidine) in co-culture with dexamethasone-treated APC, with or without blocking anti-MGL antibodies of 3 fold.

B1: DC-SIGN-Fc (Fc fusion, UniProt Q9NNX6 64-404, looked up)
chain: PSSISQEQSRQDAIYQNLTQLKAAVGELSEKSKLQEIYQELTQLKAAVGELPEKSKLQEIYQELTRLKAAVGELPEKSKLQEIYQELTWLKAAVGELPEKSKMQEIYQELTRLKAAVGELPEKSKQQEIYQELTRLKAAVGELPEKSKQQEIYQELTRLKAAVGELPEKSKQQEIYQELTQLKAAVERLCHPCPWEWTFFQGNCYFMSNSQRNWHDSITACKEVGAQLVVIKSAEEQNFLQLQSSRSNRFTWMGLSDLNQEGTWQWVDGSPLLPSFKQYWNRGEPNNVGEEDCAEFSGNGWNDDKCNLAKFWICKKSAASCSRDEEQFLSPAPATPNPPPA
notes: not shown: Fc part not described
B1: in assay [10], the binding result is “no binding”.
